The source of these data is patent US20250154231A1 (RQBIO COVID, published 2025).

First the molecules themselves.
B1: Omi35 (antibody, V domains shown)
VH: QVQLVESGGGLVQPGRSLRLSCAASGFTFDDYAMHWVRQAPGKGLEWVSGSTWNSGTIDYADSVKGRFTISRDNAKNSLYLQMNSLRAEDTALYYCAKDRFRKGCSSTGCYKENYGMDVWGQGTTVTVSS
VL: QSVVTQPPSVSVAPGQTARITCGGTNIGSKSVHWYQQKPGQAPVLVVYDDSDRPSGIPERFSGSNSGNTATLTITWVEAGDEADYYCQVWDSSSDNVLFGGGTKLTVL
B2: Omi16 (antibody, V domains shown)
VH: EVQLVESGGGVVQPGGSLRLSCAASGIIVSANYMTWVRQAPGKGLEWVSVIYPGGSTFYADSVKGRFTISRDNSKNTLYLQMNSLRVEDSAVYYCARDLELAGFNDFWGQGTLVTVSS
VL: DVVMTQSPGTLALSPGERATLSCRTSQSVSSNYLAWYQQKPGQAPRLLIYGASSRATGIPDRFSGSGSGTDFTLTISRLEPEDFAVYYCQQFGSSPRYTFGQGTKVEIK
B3: Omi17 (antibody, V domains shown)
VH: QVQLVESGGGVVQPGGSLRLSCAASGVTVSSNYMSWVRQAPGKGLEWVSVLYAGGSTFYADSVKGRFTISRDNSKNTLYLQMNSLRAEDTAAYYCARDLAVAGFLDSWGQGTLVTVSS
VL: DIVMTQSPGTLSLSPGERATLSCRASQGVSSIYLAWYQQKPGQAPRLVLYGASSRATGIPDRFSGSGSGTDFTLTISRLEPEDFAVYYCQQYGSSPRYTFGQGTKVEIK
B4: Omi28 (antibody, V domains shown)
VH: EVQLVESGGGLVQPGGSLRLSCAASGVIVSSNYMSWVRQAPGKGLQWVSVIYSGGSTFYADSVKGRFTISRDNSKNTLYLQMNSLRAEDTAVYYCARDLLEAGGTDYWGQGTLVTVSS
VL: DVVMTQSPGTLSLSPGERATLSCRASQFIGSSYLAWYQQKPGQAPRLLIYGASNRATGVPDRFSGSGSGTDFTLTISRLEPEDFAVYYCQQYGSAPGTFGQGTKVEIK
B5: Omi24 (antibody, V domains shown)
VH: QVQLVESGAEVKKPGSSVKVSCKASGGTFSSHGVIWVRQAPGQGLEWMGGIIPIFPTANYAQKFQGRVTITADKPSNTAYMELSSLRSEDTAVYYCARARGEHDSVWGSFHYYFDYWGQGTLVTVSS
VL: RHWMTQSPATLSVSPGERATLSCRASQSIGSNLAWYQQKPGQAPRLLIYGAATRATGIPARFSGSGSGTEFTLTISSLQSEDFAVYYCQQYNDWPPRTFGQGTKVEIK
B6: Omi39 (antibody, V domains shown)
VH: QVQLVESGGVVVQPGGSLRLSCAASGFSFDDYSMHWVRQAPGKGLEWVSVIYWDGVSKYYADSVKGRFTISRDNSKNSLYLQMNSLRTEDTAVYYCAKDSEDCSSTSCYMDVWGKGTTVTVSS
VL: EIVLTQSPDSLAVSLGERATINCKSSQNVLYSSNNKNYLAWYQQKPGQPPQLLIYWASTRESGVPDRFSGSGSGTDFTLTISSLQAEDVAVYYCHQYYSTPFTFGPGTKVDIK
B7: Omi23 (antibody, V domains shown)
VH: QVQLQESGPGLVKSSQTLSLTCTVSGDSISRGGYYWSWIRQHPGKGLEWIGSIYYSGSTYYNPSLKSRFTISVDTSKNQFSLKLSSVTAADTAVYHCAREIGFLDYWGQGTLVTVSS
VL: AIQMTQSPSSLSASVGDRVTITCRASQAISNSLAWYQQKPGKAPKLLLYAASTLESGVPSRFSGSGSGTDFTLTISSLQPEDFATYFCQQYYSTPPRTFGQGTKVDIK
B8: Omi29 (antibody, V domains shown)
VH: QVQLVESGGGLVQPGGSLRLSCAASGLIVSRNYMSWVRQAPGKGLEWVSLIYAGGSTFYSDSVKGRFTISRHSSENTLFLQMNSLRAEDTAVYYCARDLVHYGMDVWGQGTTVTVSS
VL: NFMLTQPASVSGSPGQSITISCTGTSSDVGGYNYVSWYQQHPGKAPKLMIYDVSNRPSGVSNRFSGSNSGNTASLTISGLQAEDEADYYCSSYTSGSTWVFGGGTKLTVL
B9: Omi25 (antibody, V domains shown)
VH: QVQLVESGGGLVQPGRSLRLSCAASGFTFDDYAMHWVRQVPGKGLEWVSGISWNSGSIVYADFVKGRFTIARDNAKNSLFLQMNSLRAEDTALYYCAKSTALRHQYYYGMDVWGQGTTVTVSS
VL: AIQMTQSPSSLSASVGDRVTITCRTSQTISSYLNWYQQKPGKAPKLLIYDASSLQSGVPSRFSGSGYGTDFTLTISSLQPEDFATYFCQQSYNTPYAFGQGTKVEIK
B10: Omi30 (antibody, V domains shown)
VH: EVQLVESGAEVKKPGSSVKVSCKASGGTFSRYAISWVRQAPGQGLEWMGGIIPIFDATNYAQKFHDRVTITADKSASTAYMELSSLRSDDTAVYYCARERTYCSGGTCYGGYFYYGMDVWGQGTTVTVSS
VL: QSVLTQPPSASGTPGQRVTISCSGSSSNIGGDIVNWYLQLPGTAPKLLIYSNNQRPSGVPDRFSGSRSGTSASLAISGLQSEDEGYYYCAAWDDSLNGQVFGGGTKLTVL
B11: Omi27 (antibody, V domains shown)
VH: EVQLLESGGGLVQPGGSLRLSCVASGLTVSSNYMSWVRQAPGKGLEWVSIIYPGGTTYYADSVKGRFTTSRDKSKNTLYLQMNSLRAEDTAVYYCARDLAVAGGMDVWGQGTTVTVSS
VL: EIVMTQSPSSLSASVGDRVTITCRASQGIGNDLGWYQQKPGKAPKVLIYAASNLQSGVPSRFSGSGSGTDFTLTISSLQPEDFATYYCLQDSNYPYTFGQGTKVEIK
B12: Omi34 (antibody, V domains shown)
VH: QVQLVQSGAEVKKPGSSVKVSCKASGGTFSSYGIRWVRQAPGQGLEWMGGIIPVFGATNYAQKFQDRVTITADKSTATAYMELSSLKSDDTAVYFCARDALSASGWTGPFDSWGQGTLVTVSS
VL: QSVLTQPPSVSGAPGQRVTISCTGSSSNIGADYDVHWYQQLPGAAPKLLIYGNNNRPSGVPDRFSGSKSGTSASLAITGLQAEDEADYYCQSYDSSQNAFYVFGTGTKVTVL
B13: Omi38 (antibody, V domains shown)
VH: QVQLVESGAEVKKPGSSVKVSCKASGGNFNMYTISWVRQAPGRGLEWMGRFIPIANKANYAQNFPGRVTITADKSTSTVYMELRSLTSDDTAVYYCARSGSYDAFDVWGQGTMVTVSS
VL: AIRMTQSPSTLSASVGDRVTITCRASQTINSWLAWYQQKPGKAPKLLIYDASNLESGVPSRFSGSGSGTEFTLTISSLQPDDFATYYCQQYESYSPITFGQGTRLEIK
B14: Omi02 (antibody, V domains shown)
VH: EVQLVESGAEVKKPGSSVKVSCKASGGTFSSYAINWVRQAPGQGLEWMGGIIPIFRTPHYAQKFQGRVTITADESTGTAYMELSSLRSEDTAVYYCASPSCGGDCPQYLKSSKLDWYFDLWGRGTLVTVSS
VL: VIWMTQSPGTLSLSPGERATLSCRASQSVSSTYLAWYQQKPGQAPRLLIYGASSRATGIPDRFSGSGSGTDFTLTISRLEPEDFAVYYCQHYGSSPLTFGQGTRLEIK
B15: Omi26 (antibody, V domains shown)
VH: QVQLVQSGTEVKKPGASVKVSCKASDYTFTRFGIIWVRQAPGQGLEWMGQINPYNGNTDYAQKFQGRVTLTTDTSTNTAYMELRSLRSDDTAVYYCARSAGSPTGLDYWGQGTLVTVSS
VL: QSVVTQPPSVSEAPRQRVTISCSGSNSNIGNNAVNWYQQLPGKAPKLLVYYDDLLPSGVSDRFSGSKSGTSASLAISGLQSEDKADYYCAAWDDSLNALVFGGGTKLTVL
B16: Omi33 (antibody, V domains shown)
VH: EVQLLESGGGVVQPGRSLRLSCAASGFKFSDYGMHWVRQAPGKGLEWVAVYWYDGGTKFYADSVKGRFTISRDNSKNTLYLQMSSLRVEDTAVYYCARDTAPPDYWGQGTLVTVSS
VL: EIVLTQSPGTLSLSPGERATLSCRASQSISSNFLAWYQQKPGQAPRLLIYGASSRATGIPDRFSGSGSGTDFTLTISRLEPEDFAVYYCQQYGTSPRLTFGGGTKVDIK

The experiment addresses T1, Omicron BA.1 RBD (SARS-CoV-2, UniProt P0DTC2 333-528).
T1 construct: domain: RBD
Put plainly: ELISA. (In general: An ELISA detects its analyte on a solid surface through an enzyme-linked reagent.)
For the molecule B1, the binding result is recorded as “binds”. As for B2, the entry is “binds”.

As to B3, the binding result is listed as “binds”.

Take B4: the binding result is listed as “binds”.

As to B5, the binding result is listed as “binds”. As for B6, the entry is “binds”.

B7: the binding result was “binds”.

B8: the binding result is recorded as “binds”.

Regarding B9, the binding result is recorded as “binds”. The same measure for B10: “binds”; for B11: “binds”. Consider B12, for which the binding result is “binds”. As for B13, the entry is “binds”. On to B14, for which the binding result was “binds”. As for B15, the entry is “binds”. As for B16, the entry is “binds”.
